# Tests used:
# [1] = target: T1, Human NKp46 recombinant proteins (human, UniProt O76036 22-258, limits assumed); assay: SPR (Biacore T100), antibody captured on Protein-A chip, recombinant human NKp46 injected (6.25-400 nM), 1:1 kinetic model
# T1 construct: also called recombinant human NKp46
# Protocol: SPR measurements were performed on a Biacore T100 apparatus (Biacore GE Healthcare) at 25° C. In all Biacore experiments HBS-EP+(Biacore GE Healthcare) and NaOH 10 mM served as running buffer and regeneration buffer respectively. Sensorgrams were analyzed with Biacore T100 Evaluation software. Protein-A was purchase from (GE Healthcare). Human NKp46 recombinant proteins were cloned, produced and purified at Innate Pharma.
# Protein-A proteins were immobilized covalently to carboxyl groups in the dextran layer on a Sensor Chip CM5. The chip surface was activated with EDC/NHS (N-ethyl-N′-(3-dimethylaminopropyl) carbodiimidehydrochloride and N-hydroxysuccinimide (Biacore GE Healthcare)). Protein-A was diluted to 10 μg/ml in coupling buffer (10 mM acetate, pH 5.6) and injected until the appropriate immobilization level was reached (i.e. 2000 RU). Deactivation of the remaining activated groups was performed using 100 mM ethanolamine pH 8 (Biacore GE Healthcare).
# Monovalent affinity study was done following a regular Capture-Kinetic protocol recommended by the manufacturer (Biacore GE Healthcare kinetic wizard). Seven serial dilutions of human NKp46 recombinant proteins, ranging from 6.25 to 400 nM were sequentially injected over the captured Bi-Specific antibodies and allowed to dissociate for 10 min before regeneration. The entire sensorgram sets were fitted using the 1:1 kinetic binding model.
# [2] = target: T2, human FcRn (recombinant, Example 10) (human, UniProt P55899 24-297; P61769 21-119, limits assumed); assay: SPR, recombinant FcRn immobilised on CM5, SCK/Two state reaction
# T2 construct: also called recombinant FcRn proteins
# T2 sequence (P55899 24-297 limits assumed, form in doubt, chain 1 of 2): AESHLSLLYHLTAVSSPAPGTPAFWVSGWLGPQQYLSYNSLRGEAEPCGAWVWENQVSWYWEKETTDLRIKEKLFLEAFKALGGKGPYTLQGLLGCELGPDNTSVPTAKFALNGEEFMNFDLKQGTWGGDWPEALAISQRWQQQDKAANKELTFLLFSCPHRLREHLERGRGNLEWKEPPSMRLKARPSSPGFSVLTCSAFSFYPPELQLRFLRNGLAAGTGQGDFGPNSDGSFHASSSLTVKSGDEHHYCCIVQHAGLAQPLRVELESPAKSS
# T2 sequence (P61769 21-119 limits assumed, form in doubt, chain 2 of 2): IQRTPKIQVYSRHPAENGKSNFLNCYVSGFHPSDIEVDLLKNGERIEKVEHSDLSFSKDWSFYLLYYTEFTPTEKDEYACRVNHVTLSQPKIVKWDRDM
# T1 sequence (O76036 22-258 limits assumed): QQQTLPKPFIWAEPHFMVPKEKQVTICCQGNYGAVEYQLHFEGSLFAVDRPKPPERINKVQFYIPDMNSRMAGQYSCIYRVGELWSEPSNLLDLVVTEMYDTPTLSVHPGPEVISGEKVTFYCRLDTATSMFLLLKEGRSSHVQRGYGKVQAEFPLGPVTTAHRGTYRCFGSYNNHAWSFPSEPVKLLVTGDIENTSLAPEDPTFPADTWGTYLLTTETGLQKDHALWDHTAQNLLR
Binder,Kd [1] [nM],koff [1] [s⁻¹],kon [1] [M⁻¹ s⁻¹],Kd [2] [nM]
"CD19-F5-NKp46-3 (bispecific antibody, human IgG1, kappa, Heterotrimer with dimeric Fc domain; also called Format 5 (F5)) chain 1: not shown chain 2: not shown chain 3: DIVMTQSPATLSVTPGDRVSLSCRASQSISDYLHWYQQKSHESPRLLIKYASQSISGIPSRFSGSGSGSDFTLSINSVEPEDVGVYYCQNGHSFPLTFGAGTKLELKASTKGPSVFPLAPSSKSTSGGTAALGCLVKDYFPEPVTVSWNSGALTSGVHTFPAVLQSSGLYSLSSVVTVPSSSLGTQTYICNVNHKPSNTKVDKRVEPKSCDKTH",67,0.0051,75600,2.6
"CD19-F6-NKp46-3 (bispecific antibody, human IgG1, kappa, also called Format 6 (F6)) chain 1: not shown chain 2: not shown chain 3: DIVMTQSPATLSVTPGDRVSLSCRASQSISDYLHWYQQKSHESPRLLIKYASQSISGIPSRFSGSGSGSDFTLSINSVEPEDVGVYYCQNGHSFPLTFGAGTKLELKASTKGPSVFPLAPSSKSTSGGTAALGCLVKDYFPEPVTVSWNSGALTSGVHTFPAVLQSSGLYSLSSVVTVPSSSLGTQTYICNVNHKPSNTKVDKRVEPKSCDKTH",63,0.00503,79300,6

# Source: US20170210802A1 (INNATE PHARMA, published 2017)
